No end group written: not given here.
Target: full length calmodulin (recombinant, Xenopus cDNA), used with Ca2+ (Xenopus, UniProt P0DP33 1-149)
Assay: fluorescence polarisation

binding result: binds
B1: fluorescein-labeled PSD-95 peptide 1-13 (peptide)
peptide: fluorescein-MDCLCIVTTKKYR
modifications: cysteine pairing not given here
